In patent US20140175018A1:
Read-outs that look alike come from different tables or passages of the source. One block for each substance: values may come before it.

How the values were obtained:
[1] = target: chemokine (C-C motif) receptor 3 (CCR3) (human) (UniProt P51677); test: cell-based or functional assay
[2] = target: chemokine (C-C motif) receptor 3 (CCR3) (human) (UniProt P51677); test: blood passed through magnetic column with RANTES-coupled MACS beads; flow cytometry before and after
[3] = target: chemokine (C-C motif) receptor 3 (CCR3) (human) (UniProt P51677); test: blood passed through chemokine-coupled column; flow cytometry before and after
[4] = target: chemokine (C-X-C motif) receptor 3 (CXCR3) (human) (UniProt P49682); test: cell-based or functional assay
Chain of chemokine (C-X-C motif) receptor 3 (CXCR3) (human) (P49682 whole entry): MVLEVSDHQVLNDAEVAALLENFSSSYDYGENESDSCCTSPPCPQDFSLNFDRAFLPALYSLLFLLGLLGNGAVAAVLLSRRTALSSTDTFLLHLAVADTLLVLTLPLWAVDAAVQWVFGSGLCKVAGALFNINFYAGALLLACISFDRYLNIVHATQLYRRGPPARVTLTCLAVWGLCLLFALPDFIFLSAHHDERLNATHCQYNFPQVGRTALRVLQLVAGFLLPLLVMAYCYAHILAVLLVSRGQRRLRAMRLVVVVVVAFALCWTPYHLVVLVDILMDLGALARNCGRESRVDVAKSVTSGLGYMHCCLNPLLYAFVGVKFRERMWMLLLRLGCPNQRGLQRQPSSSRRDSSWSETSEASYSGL

[5] = target: T1, chemokine (C-C motif) receptor 4 (CCR4) (human) (UniProt P51679); test: cell-based or functional assay
T1 sequence (looked up): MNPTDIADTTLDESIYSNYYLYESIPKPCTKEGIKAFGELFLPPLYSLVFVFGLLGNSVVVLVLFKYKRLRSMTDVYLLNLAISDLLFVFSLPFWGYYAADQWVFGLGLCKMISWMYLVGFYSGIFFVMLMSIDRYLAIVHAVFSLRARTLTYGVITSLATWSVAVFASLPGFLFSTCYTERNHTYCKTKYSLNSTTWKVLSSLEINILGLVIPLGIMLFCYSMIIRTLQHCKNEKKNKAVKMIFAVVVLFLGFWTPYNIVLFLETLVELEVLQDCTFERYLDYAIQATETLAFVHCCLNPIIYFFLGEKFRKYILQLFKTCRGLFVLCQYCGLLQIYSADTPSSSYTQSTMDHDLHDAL

[6] = target: T2, chemokine (C-X-C motif) receptor 1 (CXCR1) (human) (UniProt P25024); test: cell-based or functional assay
T2 sequence (looked up): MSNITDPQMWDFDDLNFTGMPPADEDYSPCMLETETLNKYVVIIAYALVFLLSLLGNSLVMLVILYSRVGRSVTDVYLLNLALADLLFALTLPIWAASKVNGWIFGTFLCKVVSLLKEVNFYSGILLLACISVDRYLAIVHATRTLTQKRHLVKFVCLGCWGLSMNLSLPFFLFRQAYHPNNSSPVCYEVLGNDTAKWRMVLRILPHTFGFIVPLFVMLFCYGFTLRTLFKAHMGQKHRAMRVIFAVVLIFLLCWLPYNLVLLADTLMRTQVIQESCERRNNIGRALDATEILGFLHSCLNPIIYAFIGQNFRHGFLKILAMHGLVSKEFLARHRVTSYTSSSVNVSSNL

[7] = target: T2, chemokine (C-X-C motif) receptor 1 (CXCR1) (human); test: cell-based or functional assay; remark: listed apart in the source
[8] = target: chemokine (C-C motif) receptor 9 (CCR9) (human) (UniProt P51686); test: cell-based or functional assay
Chain of chemokine (C-C motif) receptor 9 (CCR9) (human) (P51686 whole entry): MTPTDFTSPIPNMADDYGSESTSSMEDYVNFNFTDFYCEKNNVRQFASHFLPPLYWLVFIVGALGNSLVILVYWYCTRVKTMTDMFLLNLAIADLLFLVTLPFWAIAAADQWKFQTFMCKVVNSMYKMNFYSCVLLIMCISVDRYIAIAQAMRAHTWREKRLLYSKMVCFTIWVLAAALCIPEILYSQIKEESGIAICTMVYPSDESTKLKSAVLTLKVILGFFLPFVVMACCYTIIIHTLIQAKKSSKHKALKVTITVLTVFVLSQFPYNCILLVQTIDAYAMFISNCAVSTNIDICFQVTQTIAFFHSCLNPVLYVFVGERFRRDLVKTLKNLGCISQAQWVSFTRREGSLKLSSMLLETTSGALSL

[9] = target: chemokine (C-C motif) receptor 9 (CCR9) (human) (UniProt P51686); test: cell-based or functional assay; remark: listed apart in the source
[10] = target: chemokine (C-C motif) receptor 7 (CCR7) (human) (UniProt P32248); test: cell-based or functional assay
Chain of chemokine (C-C motif) receptor 7 (CCR7) (human) (P32248 25-378): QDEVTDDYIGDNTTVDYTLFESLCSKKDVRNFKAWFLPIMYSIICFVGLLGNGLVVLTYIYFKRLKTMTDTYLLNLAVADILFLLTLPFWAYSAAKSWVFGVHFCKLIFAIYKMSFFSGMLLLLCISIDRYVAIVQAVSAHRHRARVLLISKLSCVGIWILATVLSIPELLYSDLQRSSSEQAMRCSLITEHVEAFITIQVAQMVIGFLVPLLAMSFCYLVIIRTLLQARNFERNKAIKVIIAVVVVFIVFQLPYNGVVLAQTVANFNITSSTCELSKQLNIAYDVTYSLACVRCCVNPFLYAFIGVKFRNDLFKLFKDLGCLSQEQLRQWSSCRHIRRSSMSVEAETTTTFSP

[11] = target: T3, chemokine (C-C motif) receptor 6 (CCR6) (human) (UniProt P51684); test: cell-based or functional assay
T3 sequence (looked up): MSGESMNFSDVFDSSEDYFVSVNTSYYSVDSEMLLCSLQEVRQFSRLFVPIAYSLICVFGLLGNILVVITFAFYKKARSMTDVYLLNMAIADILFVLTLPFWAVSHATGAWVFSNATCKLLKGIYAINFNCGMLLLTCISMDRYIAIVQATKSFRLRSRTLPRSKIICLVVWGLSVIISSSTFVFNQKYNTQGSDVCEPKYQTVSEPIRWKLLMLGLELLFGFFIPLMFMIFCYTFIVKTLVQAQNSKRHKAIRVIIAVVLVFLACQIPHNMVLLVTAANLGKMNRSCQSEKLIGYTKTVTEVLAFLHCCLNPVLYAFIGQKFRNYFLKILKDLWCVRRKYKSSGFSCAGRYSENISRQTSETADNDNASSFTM

[12] = target: chemokine (C-X-C motif) receptor 4 (CXCR4) (human) (UniProt P61073); test: cell-based or functional assay
Chain of chemokine (C-X-C motif) receptor 4 (CXCR4) (human) (P61073 whole entry): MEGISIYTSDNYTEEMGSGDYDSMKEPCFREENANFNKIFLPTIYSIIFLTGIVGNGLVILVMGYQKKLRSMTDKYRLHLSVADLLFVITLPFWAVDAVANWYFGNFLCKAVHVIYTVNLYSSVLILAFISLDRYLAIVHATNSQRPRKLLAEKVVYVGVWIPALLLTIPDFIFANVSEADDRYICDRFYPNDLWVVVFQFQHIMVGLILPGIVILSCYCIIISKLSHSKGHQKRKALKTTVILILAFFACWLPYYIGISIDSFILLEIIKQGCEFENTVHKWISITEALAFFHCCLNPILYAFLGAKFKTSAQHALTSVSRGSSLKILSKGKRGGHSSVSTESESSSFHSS

Chain of chemokine (C-C motif) receptor 3 (CCR3) (human) (P51677 whole entry): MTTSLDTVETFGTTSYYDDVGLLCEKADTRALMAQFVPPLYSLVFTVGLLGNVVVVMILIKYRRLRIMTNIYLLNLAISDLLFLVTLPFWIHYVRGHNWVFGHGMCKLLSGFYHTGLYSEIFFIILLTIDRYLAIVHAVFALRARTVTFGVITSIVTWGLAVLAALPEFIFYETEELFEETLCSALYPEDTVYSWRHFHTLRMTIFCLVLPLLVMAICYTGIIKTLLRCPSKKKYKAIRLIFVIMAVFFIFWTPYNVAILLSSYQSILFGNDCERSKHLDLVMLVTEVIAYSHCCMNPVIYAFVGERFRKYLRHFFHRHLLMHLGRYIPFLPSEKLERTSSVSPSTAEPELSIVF
Chain of recombinant native IL-8 (P10145 28-99 limits assumed): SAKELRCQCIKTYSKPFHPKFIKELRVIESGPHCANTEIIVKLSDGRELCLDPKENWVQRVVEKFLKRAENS
Chain of recombinant native TARC (Q92583 24-94 limits assumed): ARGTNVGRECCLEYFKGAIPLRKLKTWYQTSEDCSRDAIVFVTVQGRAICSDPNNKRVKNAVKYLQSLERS
Chain of UniProt Q92583 (Q92583 other isoform, or with tags, fused parts or gaps limits assumed): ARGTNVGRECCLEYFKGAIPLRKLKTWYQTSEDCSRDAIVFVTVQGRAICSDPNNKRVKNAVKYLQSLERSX
Chain of recombinant native MIP-3a (P78556 27-96 limits assumed): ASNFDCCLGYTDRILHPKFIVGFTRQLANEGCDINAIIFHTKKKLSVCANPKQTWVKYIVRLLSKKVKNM
Chain of UniProt P10145 (P10145 other isoform, or with tags, fused parts or gaps limits assumed): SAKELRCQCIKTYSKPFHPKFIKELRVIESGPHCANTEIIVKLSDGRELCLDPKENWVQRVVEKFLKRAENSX

EC50 (agonist, Aequorin assay) [1]: 10.7 nM
Substance: recombinant native eotaxin (from UniProt P51671 24-97) (ligand)

percent reduction of chemokine receptor-expressing cells (CCR1, 3 or 5, not told apart) [2]: 20%
percent reduction of chemokine receptor-expressing cells (CCR1, 3 or 5, not told apart) [3]: 20%
Substance: biotinRANTES (CCL5): RANTES derivatised at Lys(67) with Biotin (from UniProt P13501 24-91) (ligand)

EC50 (agonist activity, Aequorin assay) [4]: 8.7 nM
Substance: biotinIP-10 (CXCL10): IP-10 derivatised with Biotin at an additional C-terminal Lysine after a PEG spacer (from UniProt P02778 22-98) (ligand)

EC50 (agonist activity, Aequorin assay) [5]: 3.1 nM
Substance: biotinTARC (CCL17): TARC derivatised at Lys(72) with PEG-Biotin (from UniProt Q92583 24-94) (ligand)

EC50 (agonist activity, Aequorin assay) [6]: 4.1 nM
EC50 (agonist activity, Aequorin assay) [7]: 4.2 nM
Substance: recombinant native IL-8 (from UniProt P10145 28-99) (ligand)

EC50 (agonist activity, Aequorin assay) [8]: 67.9 nM
EC50 (agonist activity, Aequorin assay) [9]: 67.9 nM
Substance: recombinant native TECK (from UniProt O15444 24-150) (ligand)

EC50 (agonist activity, Aequorin assay) [10]: 1.6 nM
Substance: recombinant native MIP-3b (from UniProt Q99731 22-98) (ligand)

EC50 (agonist activity, Aequorin assay) [4]: 4.4 nM
Substance: recombinant native IP-10 (from UniProt P02778 22-98) (ligand)

EC50 (agonist activity, Aequorin assay) [11]: 1 nM
Substance: recombinant native MIP-3a (from UniProt P78556 27-96) (ligand)

EC50 (agonist activity, Aequorin assay) [7]: 6.1 nM
Substance: biotinIL-8 (6-78): IL-8 (6-78) derivatised at Lys(78) with PEG-Biotin (from UniProt P10145 28-99) (ligand)

EC50 (agonist activity, Aequorin assay) [5]: 2.6 nM
Substance: recombinant native TARC (from UniProt Q92583 24-94) (ligand)

EC50 (agonist activity, Aequorin assay) [12]: 17.3 nM
Substance: biotinSDF-1a (CXCL12): SDF-1a derivatised at Lys(64) with Biotin (from UniProt P48061 22-67) (ligand)
